Here are results for one substance from paper PMC7310041.

The target in this test is microtubules (paclitaxel-stabilised polymerised tubulin) (human (endogenous in HEK293T)) (UniProt P68363). The test is described as follows: co-sedimentation; cell-based MT binding assay: lysate of transfected HEK293T cells in PEM buffer (80 mM PIPES pH 6.8, 1 mM EGTA, 1 mM MgCl2) with 0.1% Triton X-100, 2 mM GTP, 20 uM paclitaxel; 37 °C 30 min; 100,000 g 30 min; tau in supernatant and pellet by Western blot; percent MT-bound = pellet/(supernatant+pellet)*100. Background: A western blot detects proteins with antibodies after separation by electrophoresis.
Sequence of UniProt P68363 (P68363 whole entry, chain 1 of 2): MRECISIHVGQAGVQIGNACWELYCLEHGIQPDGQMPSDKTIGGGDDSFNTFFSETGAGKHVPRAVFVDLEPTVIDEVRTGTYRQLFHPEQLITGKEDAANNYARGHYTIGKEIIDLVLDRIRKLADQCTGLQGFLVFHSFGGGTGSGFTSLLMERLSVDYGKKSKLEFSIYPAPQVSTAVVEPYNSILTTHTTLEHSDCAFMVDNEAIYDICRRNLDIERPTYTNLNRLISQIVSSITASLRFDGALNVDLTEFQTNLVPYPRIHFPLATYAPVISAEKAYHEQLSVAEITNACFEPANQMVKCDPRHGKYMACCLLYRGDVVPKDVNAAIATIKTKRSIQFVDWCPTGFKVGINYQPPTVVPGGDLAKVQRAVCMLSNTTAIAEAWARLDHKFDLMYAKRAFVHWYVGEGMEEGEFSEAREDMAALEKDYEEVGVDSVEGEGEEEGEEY
Sequence of UniProt P68363 (P07437 whole entry, chain 2 of 2, further chain): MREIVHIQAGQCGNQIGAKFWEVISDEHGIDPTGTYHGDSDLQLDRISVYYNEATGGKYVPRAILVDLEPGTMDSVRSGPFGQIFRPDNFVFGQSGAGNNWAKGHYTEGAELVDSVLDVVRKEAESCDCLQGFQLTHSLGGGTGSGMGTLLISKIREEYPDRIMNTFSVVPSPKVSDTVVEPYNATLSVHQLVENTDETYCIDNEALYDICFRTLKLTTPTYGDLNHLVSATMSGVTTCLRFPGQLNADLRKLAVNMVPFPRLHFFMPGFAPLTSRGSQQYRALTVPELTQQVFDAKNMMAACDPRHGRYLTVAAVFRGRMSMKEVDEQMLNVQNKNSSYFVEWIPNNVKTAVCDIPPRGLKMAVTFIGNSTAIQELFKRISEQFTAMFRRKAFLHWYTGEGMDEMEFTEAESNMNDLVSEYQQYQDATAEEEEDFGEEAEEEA

“2N4R human tau S208E phosphomimetic (from UniProt P10636-8 1-441) (natural protein)” showed a percent of tau bound to MTs of 41%.
